According to article PMC9044917 (Nature structural & molecular biology, 2022):

B1: IMPDH1(514)-R224P (enzyme)
chain: not shown
B2: IMPDH1(514)-R231P (enzyme)
chain: not shown
B3: IMPDH1(514)-N198K (enzyme)
chain: not shown
B4: IMPDH1(514)-R105W (enzyme)
chain: not shown
B5: IMPDH1(514)-K238E (enzyme)
chain: not shown
B6: IMPDH1(514)-D226N (enzyme)
chain: not shown
B7: IMPDH1(514)-T116M (enzyme)
chain: not shown
B8: IMPDH1(514)-V268I (enzyme)
chain: not shown
B9: IMPDH1(514)-H372P (enzyme)
chain: not shown
B10: IMPDH1(514) (enzyme)
chain: not shown

Target: the molecule itself
Experiment: negative stain EM

Binding result, binds:
B1, B2, B3, B4, B5, B6, B7, B8, B9

Target: the molecule itself
Experiment: negative stain EM
Remark: another data set of the same source

Binding result, binds:
B10
